Experimental findings from article PMC11721787 (Science translational medicine, 2023) are described below.

Changes are numbered by the printed parent chain.

The target in the experiment is ANDV Gn^H/Gc (Andes virus; strain , Q9E006 …, UniProt Q9E006). Kind of experiment: BLI. (In BLI a coated tip is dipped into the sample, and binding shifts an interference pattern.)

B1: ADI-42898 (monoclonal antibody, IgG) (antibody, V domains shown)
VH: QVQLVESGGGVVQPGRSLRLSCAASGFTFSSYAMHWVRQAPGKGLEWVAVTWFDVSKKDYADSVKGRFTISRDNSKNTLYLQMNSLRAEDTAVYYCARNLIRYSGSYFPVHGMDVWGQGTTVTVSS
VL: DIVMTQSPLSLPVTPGEPASISCRSSQSLLHTYGYNCLDWYLQRPGQSPQLLISLGSYRASGVPDRFSGSGSGTDFTLKISRVEAEDVGVYYCMQALHPFTFGGGTKVEIK
B1: the “half-life (t1/2) of the complex at pH 5.5” value turned out to be 519 s.

B2: ADI-65533 (antibody, V domains shown)
VH: B1 VH with G105V
VL: B1 VL with C37V
Turning to B2, the “fold reduction of dissociation at acidic pH against ADI-42898” value was determined as 10 fold.

B3: ADI-65534 (antibody, V domains shown)
VH: B1 VH with T28E, G105V
VL: B1 VL with C37V
Regarding B3, the “fold reduction of dissociation at acidic pH against ADI-42898” value was 10 fold.
